Experimental findings from the RNAGym collection of RNA variant scans (doi:10.7554/elife.80360) are described below.

B1: HDV Ribozyme (parent)
chain: GGCCGGCAUGGUCCCAGCCUCCUCGCUGGCGCCGGCUGGGCAACAUUCCGAGGGGACCGUCCCCUCGGUAAUGGCGAAUGGGACCCA

This data set covers variants of B1. The experiment in a line: self-cleavage, relative activity (ratio to wild type); higher = more cleavage; co-transcriptional.
Regarding A16U U23A, the self-cleavage was determined as 0.739. For A16U U23G, the self-cleavage is 0.575. For G17C G34C the value was 0.0723; for G17C G40C, 0; for C18G U65G, 0.115. On to G17C C75U, for which the self-cleavage was 0. Then G17U A77G, with 0.0536; and G17U A77U, with 0.104. For G17U U72C the value was 0.142; for G17C G54U, 0.256; for G17C G54A, 0.262. Then C18U C41A, with 0.597; and C18G G31U, with 0.0396.

On to G17C U47G, for which the self-cleavage came to 0.217. Take G17C U47C: the self-cleavage turned out to be 0.519. Then G17C U47A, with 0. Then A16U U47C, with 0.72. For C18A C30A the value was 0.141. Take C18A C30G: the self-cleavage was determined as 0.0573. Then C18A G73C, with 0.0396; and G17A G54A, with 0.786; and C18U A45U, with 0.361. For the variant G17A G74A, the self-cleavage amounted to 0.132. Then C18G G59A, with 0.128; and C18G G59U, with 0.312. For G17U C26A the value was 0.491; for G17C A83U, 0.256; for G17C A83G, 0.131. For C18U A83C the value was 0.227; for C18G U69C, 0.151. As for C18G U69G, the self-cleavage worked out at 0.128.

C18G U69A: the self-cleavage is 0.0489. Regarding G17A G29U, the self-cleavage stood at 0.0767. Then G17A G29C, with 0.0405.

C18A U20A: the self-cleavage worked out at 0.0875. Regarding G17A C41U, the self-cleavage stood at 0.46.

On to G17A C41A, for which the self-cleavage is 0.47. For A16U G55C the value was 0.98. For G17A G73A the value was 0.34. With G17C U23A, the self-cleavage worked out at 0.344. Then A16U G25C, with 0.32.

For the variant C18G C49A, the self-cleavage came out at 0.0791. C18G C49G: the self-cleavage was 0.0723.

Consider G17C G59A, for which the self-cleavage turned out to be 0.231. With G17A G25A, the self-cleavage was 0.117. As for C18A G31C, the self-cleavage is 0.163. Turning to G17C A51C, the self-cleavage is 0.308. For C18A G76A, the self-cleavage turned out to be 0.0678. For G17C C21U the value was 0.0923; for G17A A42G, 0.119.

For C18A C64A, the self-cleavage turned out to be 0.136. With C18G C75G, the self-cleavage came out at 0.229.

For the variant G17C G31C, the self-cleavage is 0.0475.

As for G17A G50A, the self-cleavage turned out to be 0.76.

On to A16U C85G, for which the self-cleavage amounted to 1.03. A16U C85A: the self-cleavage came to 1.1.

As for C18U C63G, the self-cleavage was 0.607. As for C18U C63U, the self-cleavage is 0.733. For G17U U46C the value was 0.356; for C18G G34A, 0.136. As for A16U G53U, the self-cleavage is 0.985.

In the case of C18G C86A, the self-cleavage was 0. Then G17U C21A, with 0.0339; and G17U C21G, with 0. For C18A U65A the value was 0.0723. Then C18A U65C, with 0.101; and G17U G68C, with 0.542; and G17U G68A, with 0.478. As to G17A A70G, the self-cleavage came to 0.554. Then G17A A70C, with 0.449. Then C18U C36U, with 0.198. As to C18U C36A, the self-cleavage amounted to 0.0739.

For the variant A16U U60G, the self-cleavage was determined as 1.15. For C18G C63A the value was 0.145; for G17U A56U, 0.533. For G17U G25C the value was 0.0811; for G17U G25A, 0.0489; for G17A G52U, 0.728.

For G17C A56C, the self-cleavage was 0.302.

As to G17C C32G, the self-cleavage stood at 0. Then C18G C85G, with 0; and C18G C85U, with 0.095; and C18G C85A, with 0.0554. For C18G G53C the value was 0.227. Then C18G G53A, with 0.175; and G17A C30A, with 0.651. Take A16U U46C: the self-cleavage stood at 1.21. For A16U U46G the value was 0.437; for A16U U46A, 0.489; for C18A G53C, 0.214. For C18A G53U the value was 0.117. In the case of C18U A70C, the self-cleavage came out at 0.514. For C18U A70U the value was 0.658; for C18U A70G, 0.752; for C18G G35C, 0.104. Then C18G G55C, with 0.185; and G17U G38U, with 0.0369. Regarding C18A C33G, the self-cleavage was 0. For C18G G39C the value was 0.0755; for A16U U20A, 0.0875; for G17A U37A, 0.0415.

For G17A C86A, the self-cleavage turned out to be 0.538. Then G17A C66A, with 0.748; and G17C C44U, with 0.142. For G17A C49U, the self-cleavage is 0.853. For G17A C49G the value was 0.565.

C18G A70C: the self-cleavage was found to be 0.

In the case of A16U G81A, the self-cleavage was found to be 0.813.

With G17C A45U, the self-cleavage came out at 0.107. Then C18G G81U, with 0; and C18G C84G, with 0.237. Then C18G C84U, with 0.0386; and G17C A71G, with 0.475. Take G17C A71U: the self-cleavage is 0.32. G17U G40C: the self-cleavage is 0.189. Then A16U C64A, with 0.743; and A16U C24G, with 0.237.

As for A16U C24A, the self-cleavage is 0.482. In the case of C18G G50C, the self-cleavage was found to be 0.

Consider C18G C26U, for which the self-cleavage stood at 0.388. As to G17C G29C, the self-cleavage was found to be 0.166. For C18A A77U the value was 0; for C18G C30U, 0.0386; for C18G C30A, 0.0739.

As to G17U C63A, the self-cleavage came out at 0.517. Then C18A G82A, with 0.149; and C18A G82C, with 0.122; and G17U C30U, with 0.716. Turning to G17A C32U, the self-cleavage is 0.369. Then G17A C32G, with 0.0415; and G17U A83C, with 0.219. Turning to G17U A83G, the self-cleavage is 0.405.

C18U C32U: the self-cleavage came out at 0.327.

A16U G38U: the self-cleavage was determined as 0.253.

As for A16U G38A, the self-cleavage was found to be 0.113. Then G17A G40U, with 0.562.

C18G U37C: the self-cleavage was 0.256. Turning to C18G U37G, the self-cleavage is 0.0692. C18A G54C: the self-cleavage was 0.189. For G17A U60G the value was 0.712; for G17U G67A, 0.564; for G17U U20A, 0.0378. In the case of G17U U20C, the self-cleavage came to 0.0573.

Consider G17C U27G, for which the self-cleavage came out at 0.499. Then G17U G50C, with 0.496; and G17U A87G, with 0.499; and G17U A87U, with 0.548. For C18A G52C, the self-cleavage stood at 0.0346. For G17C G52A the value was 0.415; for G17C G52U, 0.363. For G17U A71U the value was 0.443; for A16U C62A, 0.897. Consider G17A C64G, for which the self-cleavage is 0.496. Then C18U C22U, with 0.121; and C18G C66G, with 0.0665. Then G17U C48A, with 0.538; and G17A C58G, with 0.812.

With C18A C75A, the self-cleavage is 0.0906. Regarding A16U U72C, the self-cleavage was 0.569. For C18A C32U the value was 0.145. With C18A C32G, the self-cleavage turned out to be 0.0875. Then C18A C48U, with 0.0627. In the case of G17U A78G, the self-cleavage came to 0.201.

In the case of C18U C44U, the self-cleavage turned out to be 0.258. Regarding C18A G35A, the self-cleavage was found to be 0.199. A16U A77G: the self-cleavage came to 0.739. For G17A C48U the value was 0.785.
